According to the supplement of paper PMC10567573:

B1: DVL3 (parent)
chain: FPELGYSYGGGSASSQHSEGSRSS

Variants of: B1
Assay: protein stability index of a GFP-peptide fusion (GPS, HEK-293T) (PSI 1-6); higher = more stable
Settings: c terminus: a fixed tail appended
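Further: lentivirally expressed fusions sorted by FACS into six bins by GFP to DsRed ratio, PSI derived from sequencing read proportions per bin multiplied by bin number.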

Protein stability index of substitutions, site by site:
H17: Y 2.45, D 3.08, T 3.12, I 2.74, Q 2.83
Y6: K 3.37, A 3.87, F 2.32, D 5.2, S 3.98, W 1.66, P 3.76, H 3.77, R 3.5, G 3.81, Q 4.3, I 3.77, M 3.71, E 4.76, N 4.58, L 3.53, V 3.75, T 3.7, C 3.4
Y8: E 4.71, K 2.95, F 2.59, W 2.82, G 3.8, H 3.43, T 3.7, S 4.09, I 2.58, Q 4.06, P 3.97, R 3.2, A 3.72, N 4.09, C 2.74, M 3.6, L 3.09, D 4.75, V 3.45
S12: P 2.92, Q 3.12, T 3.29, L 2.81, E 3.56, H 2.9, W 2.22, R 2.91, M 2.9, Y 2.41, K 2.82, G 3.14, C 3.03, V 3, I 2.64, D 3.2, A 2.58, F 2.65, N 3.17
S15: A 3.59, H 3.2, Y 2.73, I 2.9, M 2.74, P 3.56, C 2.19, K 2.64, V 3.2, N 3.38, F 2.71, T 2.65, R 2.92, D 2.99, W 1.75, Q 3.18, L 3.16, E 3.65, G 2.8
G10: A 3.06, C 2.2, Y 2.45, F 2.22, P 3.3, V 2.83, T 2.78, S 3.45, R 2.74, Q 2.84, K 3.61, D 3.67, M 2.15, H 3.12, I 2.81, L 2.62, N 3.55, E 3.95, W 1.89
S7: H 2.4, D 4.89, V 2.42, M 2.65, P 2.7, K 3.21, T 2.36, L 2.26, Y 2.19, A 2.12, Q 3.22, G 2.5, W 1.74, E 3.68, N 3.55, I 2.04, F 2.72, R 2.18, C 1.84
S18: W 2.2, T 3.3, D 3.7, H 2.95, N 2.89, M 2.76, C 2.9, V 3.36, P 3.24, K 2.98, Q 3.15, A 3.19, L 2.86, R 2.97, I 2.73, G 3.12, F 2.77, E 3.5, Y 2.9
P2: L 2.86, Q 3.02, T 2.38, W 3.2, S 3.34, M 3.96, R 4.09, Y 3.1, N 4.26, V 4.01
G9: P 3.37, C 2.3, R 2.91, F 2.43, S 3.27, D 4.05, M 2.49, V 2.4, A 2.39, L 1.6, N 3.77, K 3.18, Y 2.11, E 4.39, I 2.22, H 2.93, T 3.32, W 1.58, Q 2.8
